# Results as given in patent US20180105574A1.
# Several values for one entry are separate records, joined by “and”; a condition that tells them apart may be missing. Equal values may be shown once.
# How the values were obtained:
# [1] = molecular target: P. acnes total surface protein extract; assay: plate assay, extract 0.8 to 50 µg/ml immobilized, biotinylated fibrinogen 0.1 µg/ml
# [2] = molecular target: human fibrinogen (purified, commercial) (human) (UniProt P02671); assay: fibrinogen binding activity of the gel filtration pool (pure Pfg), biotinylated fibrinogen
# [3] = molecular target: human fibrinogen (purified, commercial) (human) (UniProt P02671); assay: fibrinogen binding activity of the anion exchange pool (partly purified Pfg), biotinylated fibrinogen
# [4] = molecular target: human fibrinogen (purified, commercial) (human) (UniProt P02671); assay: fibrinogen binding activity of purification step, biotinylated fibrinogen
# [5] = molecular target: human fibrinogen (purified, commercial) (human) (UniProt P02671); assay: fibrinogen binding activity after ammonium sulfate precipitation, biotinylated fibrinogen
# UniProt P02671, sequence (P02671 20-629 limits assumed, chain 1 of 3): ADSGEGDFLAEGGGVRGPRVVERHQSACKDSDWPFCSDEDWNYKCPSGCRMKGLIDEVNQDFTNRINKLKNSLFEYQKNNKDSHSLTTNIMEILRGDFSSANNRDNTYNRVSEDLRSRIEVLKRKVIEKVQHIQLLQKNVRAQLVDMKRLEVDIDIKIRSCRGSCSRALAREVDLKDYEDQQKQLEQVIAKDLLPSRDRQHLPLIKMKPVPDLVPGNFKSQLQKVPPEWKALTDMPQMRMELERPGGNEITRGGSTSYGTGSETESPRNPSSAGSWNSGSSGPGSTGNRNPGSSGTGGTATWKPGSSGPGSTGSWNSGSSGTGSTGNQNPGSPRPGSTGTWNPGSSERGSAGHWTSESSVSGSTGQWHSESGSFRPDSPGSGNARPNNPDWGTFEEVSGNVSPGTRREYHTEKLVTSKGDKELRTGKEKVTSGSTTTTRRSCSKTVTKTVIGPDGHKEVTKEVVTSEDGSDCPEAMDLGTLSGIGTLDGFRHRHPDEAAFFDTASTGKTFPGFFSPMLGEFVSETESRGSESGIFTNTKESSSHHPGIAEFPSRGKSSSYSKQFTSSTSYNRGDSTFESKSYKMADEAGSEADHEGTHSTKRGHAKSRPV
# UniProt P02671, sequence (chain, as listed by the source limits assumed, chain 2 of 3): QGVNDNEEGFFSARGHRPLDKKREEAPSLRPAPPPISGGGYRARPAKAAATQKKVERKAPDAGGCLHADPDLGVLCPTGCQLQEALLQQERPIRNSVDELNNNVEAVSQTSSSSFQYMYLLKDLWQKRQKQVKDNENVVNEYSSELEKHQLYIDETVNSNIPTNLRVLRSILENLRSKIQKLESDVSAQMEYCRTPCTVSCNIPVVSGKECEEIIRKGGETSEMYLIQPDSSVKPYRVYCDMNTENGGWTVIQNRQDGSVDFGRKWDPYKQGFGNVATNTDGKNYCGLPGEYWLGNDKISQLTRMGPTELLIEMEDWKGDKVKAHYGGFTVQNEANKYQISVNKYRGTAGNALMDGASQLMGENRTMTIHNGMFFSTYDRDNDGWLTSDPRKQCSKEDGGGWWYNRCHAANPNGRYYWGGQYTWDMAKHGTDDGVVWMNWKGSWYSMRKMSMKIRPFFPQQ
# UniProt P02671, sequence (P02679 other isoform, or with tags, fused parts or gaps limits assumed, chain 3 of 3, further chain): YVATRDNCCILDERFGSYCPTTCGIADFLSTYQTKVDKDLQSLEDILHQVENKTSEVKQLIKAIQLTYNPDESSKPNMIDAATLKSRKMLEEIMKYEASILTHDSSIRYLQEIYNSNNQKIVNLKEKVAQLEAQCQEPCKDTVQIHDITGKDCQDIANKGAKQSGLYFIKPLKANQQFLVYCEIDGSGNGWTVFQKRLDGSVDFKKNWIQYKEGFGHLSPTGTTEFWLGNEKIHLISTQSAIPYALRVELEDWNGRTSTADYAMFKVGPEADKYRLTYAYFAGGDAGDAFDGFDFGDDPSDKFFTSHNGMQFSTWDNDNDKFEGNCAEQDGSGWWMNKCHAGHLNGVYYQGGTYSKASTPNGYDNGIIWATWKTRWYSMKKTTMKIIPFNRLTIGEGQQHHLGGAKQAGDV
substance,measurement,setting,value
"human fibrinogen (purified, commercial) (from UniProt P02671 20-629; P02679 27-437) (ligand)",concentration of immobilized extract at which binding reaches a plateau,[1],6.25 µg/mL
"Pfg, 58-kDa P. acnes surface protein (fibrinogen binding protein; putative adhesion or S-layer protein YP_056792, locus tag PPA2127)",Specific Activity (fibrinogen binding activity per unit of protein),[2],1840 U/mg
same,Total units (fibrinogen binding activity),[2],368 U
same,Specific Activity (fibrinogen binding activity per unit of protein),[3],1030 U/mg
same,Total units (fibrinogen binding activity),[3],3000 U
P. acnes total surface protein extract,Specific Activity (fibrinogen binding activity per unit of protein),[4],423 U/mg and 290 U/mg
same,Total units (fibrinogen binding activity),[4],390000 U and 160000 U
same,fold increase in specific activity against the unconcentrated lithium extract,[5],1.45 fold
